Measured values: the supplement of paper PMC7125110
± gives the standard error. Variants at the floor of the assay were thinned out.

B1: glmS ribozyme (parent)
chain: AUAAAAGCGCCAGAACUACAGAAAUGUAGUUGACGAGGAGGAGGUUUAUCGAAUUUUCGGCGGAUGCCUCCAAA

How the values were obtained:
Details in all cases: with glucosamine-6-phosphate
glucosamine-6-phosphate [1] = variants of: B1; test: self-cleavage kobs at 160 uM GlcN6P; higher = faster cleavage; RNA array
Method in brief: (§1)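 Barcoded ribozyme variants were transcribed in situ on sequenced MiSeq chips by E. coli RNA polymerase. At 37 °C, a hybridised Cy3 probe tracked them while glucosamine-6-phosphate (40 μM to 10 mM) in HEPES/KCl/Mg(OAc)2 buffer flowed in and tiles were imaged over ~14 h. Per-tile medians of signals normalised to baseline and to non-cleaving reference variants were fit to one- or two-exponential decays, giving kobs. kcat and KM came from weighted Michaelis–Menten fits across concentrations.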

glucosamine-6-phosphate [2] = variants of: B1; test: self-cleavage kobs at 2500 uM GlcN6P; higher = faster cleavage; RNA array
Method in brief: as §1

glucosamine-6-phosphate [3] = variants of: B1; test: self-cleavage kobs at 640 uM GlcN6P; higher = faster cleavage; RNA array
Method in brief: as §1

glucosamine-6-phosphate [4] = variants of: B1; test: self-cleavage kobs at 10000 uM GlcN6P; higher = faster cleavage; RNA array
Method in brief: as §1

| Variant | self-cleavage kobs at 160 uM GlcN6P (glucosamine-6-phosphate [1]) | self-cleavage kobs at 2500 uM GlcN6P (glucosamine-6-phosphate [2]) | self-cleavage kobs at 640 uM GlcN6P (glucosamine-6-phosphate [3]) | self-cleavage kobs at 10000 uM GlcN6P (glucosamine-6-phosphate [4]) |
| --- | --- | --- | --- | --- |
| A39C G51C U55A | < 1e-05 s⁻¹ | < 1e-05 s⁻¹ |  |  |
| G29C G41U G63C C68A | < 1e-05 s⁻¹ | < 1e-05 s⁻¹ | < 1e-05 s⁻¹ |  |
| G43A U56A U57A C61U | < 1e-05 s⁻¹ |  |  |  |
| A6G A33G G60C | < 1e-05 s⁻¹ |  | < 1e-05 s⁻¹ |  |
| C8G G35A | < 1e-05 s⁻¹ |  |  | < 1e-05 s⁻¹ |
| A6C A15U C71G | < 1e-05 s⁻¹ |  |  |  |
| C8U G40U G43U | < 1e-05 s⁻¹ | < 1e-05 s⁻¹ | < 1e-05 s⁻¹ |  |
| G37A C50A C61G | < 1e-05 s⁻¹ |  | < 1e-05 s⁻¹ |  |
| A6G C8A A48C | < 1e-05 s⁻¹ |  |  |  |
| G9U G40A | < 1e-05 s⁻¹ | < 1e-05 s⁻¹ | < 1e-05 s⁻¹ | < 1e-05 s⁻¹ |
| A15U C34A A64G | < 1e-05 s⁻¹ | < 1e-05 s⁻¹ |  |  |
| G13U A14C G32A U46C G63A C68U U69G C71U | < 1e-05 s⁻¹ |  | < 1e-05 s⁻¹ |  |
| G41A G60C | < 1e-05 s⁻¹ |  | < 1e-05 s⁻¹ | < 1e-05 s⁻¹ |
| C58U C61G G66A C67A | 5.89e-05 ± 2e-05 s⁻¹ |  | 0.000108 ± 3.7e-05 s⁻¹ |  |
| C10G U31C A48U C61A C70G | < 1e-05 s⁻¹ |  | < 1e-05 s⁻¹ |  |
| A33C G37A G63C | < 1e-05 s⁻¹ | < 1e-05 s⁻¹ | < 1e-05 s⁻¹ |  |
| C34A A36G A39U A48C | < 1e-05 s⁻¹ | < 1e-05 s⁻¹ |  |  |
| U31G A33U U47G | < 1e-05 s⁻¹ |  |  |  |
| C10A U69G | 3.29e-05 ± 1.6e-05 s⁻¹ | 0.000329 ± 8.6e-05 s⁻¹ |  | 3.29e-05 ± 1.6e-05 s⁻¹ |
| U45G A53C C71U | 0.000134 ± 5.7e-05 s⁻¹ | 0.000938 ± 0.00023 s⁻¹ | 0.000323 ± 7e-05 s⁻¹ |  |
| U31C A52U C71G | < 1e-05 s⁻¹ |  |  |  |
| C10U A33C G59A G66U | < 1e-05 s⁻¹ |  | < 1e-05 s⁻¹ |  |
| A14C C16A U31C G35C U55G | < 1e-05 s⁻¹ | < 1e-05 s⁻¹ |  | < 1e-05 s⁻¹ |
| A33U G35U A42U G44U | < 1e-05 s⁻¹ | < 1e-05 s⁻¹ | < 1e-05 s⁻¹ |  |
| G7U A15C A36U U47C | < 1e-05 s⁻¹ | < 1e-05 s⁻¹ | < 1e-05 s⁻¹ |  |
| C10U G13C | < 1e-05 s⁻¹ |  |  | < 1e-05 s⁻¹ |
| C34U U56C G66C | < 1e-05 s⁻¹ | < 1e-05 s⁻¹ |  |  |

| Variant | self-cleavage kobs at 160 uM GlcN6P (glucosamine-6-phosphate [1]) | self-cleavage kobs at 2500 uM GlcN6P (glucosamine-6-phosphate [2]) | self-cleavage kobs at 640 uM GlcN6P (glucosamine-6-phosphate [3]) | self-cleavage kobs at 10000 uM GlcN6P (glucosamine-6-phosphate [4]) |
| --- | --- | --- | --- | --- |
| A12C G51C U57C A64C | < 1e-05 s⁻¹ | < 1e-05 s⁻¹ | < 1e-05 s⁻¹ |  |
| A12G C58U G59A | < 1e-05 s⁻¹ |  |  |  |
| G26U U54A | 0.000887 ± 0.00025 s⁻¹ | 0.00265 ± 0.0013 s⁻¹ | 0.00635 ± 0.002 s⁻¹ | 0.0333 ± 0.0093 s⁻¹ |
| C10A G32C G51U | < 1e-05 s⁻¹ |  |  |  |
| A12G C34A A36G | < 1e-05 s⁻¹ | < 1e-05 s⁻¹ |  |  |
| A33U G41U A52U | < 1e-05 s⁻¹ | < 1e-05 s⁻¹ | < 1e-05 s⁻¹ |  |
| A12G A14C A48U | < 1e-05 s⁻¹ | < 1e-05 s⁻¹ | < 1e-05 s⁻¹ |  |
| A42C A52G U55A U57G C68U C70U | < 1e-05 s⁻¹ | < 1e-05 s⁻¹ | < 1e-05 s⁻¹ |  |
| G35U A64U | < 1e-05 s⁻¹ | < 1e-05 s⁻¹ | < 1e-05 s⁻¹ | < 1e-05 s⁻¹ |
| C16U C34G | < 1e-05 s⁻¹ |  |  | < 1e-05 s⁻¹ |
| A12G A36C U65A | < 1e-05 s⁻¹ | < 1e-05 s⁻¹ | < 1e-05 s⁻¹ | < 1e-05 s⁻¹ |
| C10U C11G A39C | < 1e-05 s⁻¹ |  | < 1e-05 s⁻¹ |  |
| G32U A42C | < 1e-05 s⁻¹ | < 1e-05 s⁻¹ | < 1e-05 s⁻¹ |  |
| G32C C34A C67G C70A | < 1e-05 s⁻¹ |  |  |  |
| C10G U31C A33C G51U C71U | < 1e-05 s⁻¹ |  | < 1e-05 s⁻¹ |  |
| G9A A14U A36C U46G | < 1e-05 s⁻¹ | < 1e-05 s⁻¹ |  |  |
| G29A A36U U55G | < 1e-05 s⁻¹ |  | < 1e-05 s⁻¹ |  |
| G59U C67U C68U U69C | 4.87e-05 ± 2.4e-05 s⁻¹ |  |  |  |
| G37A A39U U54C | 8.28e-05 ± 3.4e-05 s⁻¹ | 0.000423 ± 6.7e-05 s⁻¹ | 0.00016 ± 1.9e-05 s⁻¹ |  |
| U30G G32A A48G G62C | < 1e-05 s⁻¹ | < 1e-05 s⁻¹ | < 1e-05 s⁻¹ |  |
| G29A A39U G43U | < 1e-05 s⁻¹ |  |  |  |
| A6C C11U C16U U30G A39U G41U U54G U69G | < 1e-05 s⁻¹ |  |  |  |
| G29C A33C C61A | < 1e-05 s⁻¹ |  |  |  |
| A15C A48C | < 1e-05 s⁻¹ |  |  | 4.99e-05 ± 1.2e-05 s⁻¹ |
| A64U C68U | < 1e-05 s⁻¹ |  | < 1e-05 s⁻¹ |  |
| C8A A15C C34A G38A C68G | 0.000422 ± 0.00011 s⁻¹ | 0.00055 ± 0.00013 s⁻¹ | 0.000341 ± 8.5e-05 s⁻¹ |  |
| U49C G62A | < 1e-05 s⁻¹ |  | < 1e-05 s⁻¹ | < 1e-05 s⁻¹ |
